Experimental data taken from the supplement of paper PMC10899765.

How the values were obtained:
Details in all cases: 20 nM; 72 h
MCF10A [1] = assay: one-nucleolus phenotype percent effect (relative to siNT 0% and siNOL11 100%); higher = more cells with one nucleolus (ribosome biogenesis inhibition)
Experimental: (§1)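 After 72 h, cells were fixed and stained with Hoechst and anti-fibrillarin, and nucleoli per nucleus were counted with CellProfiler. Values are plate-adjusted percent effect for the one-nucleolus and 5+ nucleoli phenotypes, normalised to siNT (0%) and to the positive controls siNOL11 or siKIF11 (100%), as the mean of biological triplicates. Percent viability is the nuclei count relative to siNT.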

MCF10A [2] = assay: 5+ nucleoli phenotype percent effect (relative to siNT 0% and siKIF11 100%); higher = more cells with five or more nucleoli
Experimental: as §1

MCF10A [3] = assay: percent viability (nuclei count relative to siNT); higher = more viable cells
Experimental: as §1

Row | Sequence | one-nucleolus phenotype percent effect (MCF10A [1]) [%] | 5+ nucleoli phenotype percent effect (MCF10A [2]) [%] | percent viability (MCF10A [3]) [%]
1 | CCUGUCUGUGCCUGCUGUACA [hsa-miR-3120-5p] | -1.5 | 4.71 | 127
2 | CAGGGGGACUGGGGGUGAGC [hsa-miR-6794-5p] | 5.76 | 7.3 | 50.1
3 | UGGAAGACUAGUGAUUUUGUUGU [hsa-miR-7-5p] | 25.5 | -32.4 | 51.8
4 | AGAAGGGAAGAUGGUGAC [hsa-miR-7515] | -2.73 | 4.41 | 42.5
5 | ACAGGCAGGAUUGGGGAA [hsa-miR-4514] | 32.3 | -12 | 18.4
6 | UAGGGUAGACACUGACAACGUU [hsa-miR-6755-5p] | 25 | -14.8 | 19.9
7 | GUGGUUAUCCCUGUCCUGUUCG [hsa-miR-487b-5p] | -1.37 | 17.4 | 37.4
8 | CACCUUUGUGUCCCCAUCCUGCA [hsa-miR-6782-3p] | -13.1 | 49.2 | 51.1
9 | AAACAUUCGCGGUGCACUUCUU [hsa-miR-543] | -1.05 | 0.749 | 37.4
10 | AUAAGACGAGCAAAAAGCUUGU [hsa-miR-208a] | -6.61 | 14.9 | 100
11 | UCAUUUAUCUGUUGGGAAGCUA [hsa-miR-4729] | 1.2 | -14.5 | 53.1
12 | UUAUUGCUUAAGAAUACGCGUAG [hsa-miR-137] | 47.7 | -22.6 | 114
13 | UUCUCUUUCUUUAGCCUUGUGU [hsa-miR-4753-3p] | 27.3 | -14.1 | 22.1
14 | UGAGGAGAUCGUCGAGGUUGG [hsa-miR-3150b-3p] | -11.7 | 24.3 | 47.3
15 | GAAUGUUGCUCGGUGAACCCCU [hsa-miR-409-3p] | 9.98 | -31.1 | 35.9
16 | ACUCAGUCAUGGUCAUU [hsa-miR-4264] | -7.28 | 26.3 | 95.1
17 | CCCUCUCUGGCUCCUCCCCAAA [hsa-miR-4723-3p] | -23.7 | 50.7 | 114
18 | AAUAAUACAUGGUUGAUCUUU [hsa-miR-369-3p] | -9.36 | 11.7 | 162
19 | CCUGCUGGUCAGGAGUGGAUACUG [hsa-miR-3692-5p] | 2.08 | 6.3 | 32.9
20 | GCGACUCUGAAAACUAGAAGGU [hsa-miR-4431] | -23.7 | 34.2 | 82.9
21 | ACCUUGCCUUGCUGCCCGGGCC [hsa-miR-1915-5p] | 39.7 | -40.4 | 34.9
22 | AGCUGUACCUGAAACCAAGCA [hsa-miR-4718] | 9.98 | -2.07 | 77.5
23 | AAUAGGCCACGGAUCUGGGCAA [hsa-miR-1295b-3p] | 28.6 | 4.51 | 13.8
24 | UAAUGCAUUAAAUUAUUGAAGG [hsa-miR-5700] | -23.8 | 47.4 | 125
